Consider 25 molecules from patent publication US20130130989A1 (AGENCY FOR SCIENCE TECHNOLOGY AND RESEARCH, published 2013).

Series [1] concerns the target eukaryotic translation initiation factor 4E (eIF4E), full length human (human) (UniProt P06730). The experiment in a line: Kd estimated from FTS thermal shift.
For series [2] the target is unchanged. The experiment in a line: fluorescence-based thermal shift assay (FTS), Sypro Red, 10 µM eIF4E, 100 µM peptide.
In series [3] the target is T1, eukaryotic translation initiation factor 4E (eIF4E), full length human (human, UniProt P06730 2-217).
T1 construct: mature; read as P06730; also called eIF4E protein
The experiment in a line: fluorescence-based thermal shift assay (FTS), Sypro Red, 10 µM eIF4E, 200 µM peptide (*).
Procedure: A fluorescence based thermal shift assay was used to screen and rank the rationally designed eIF4E binding derivative peptides. The fluorescent dye Sypro Red was used to monitor thermal denaturation of eIF4E. Binding of the dye molecule to eIF4E, as it unfolds due to thermal denaturation, results in a sharp increase in the fluorescence intensity. The midpoint of this transition is termed the Tₘ. The thermal shift assay was conducted in the iCycler Real Time Detection System (Bio-Rad, Hercules, Calif.). The system contains a heating/cooling device for accurate temperature control and a charge-coupled device (CCD) detector for simultaneous imaging of the fluorescence changes in the wells of the microplate.

Series [4] deals with T1, eukaryotic translation initiation …. The experiment in a line: Kd estimated from the FTS thermal shift of eIF4E (10 µM eIF4E, 200 µM peptide).
For series [5] the target is unchanged. The experiment in a line: ITC, peptide titrated into eIF4E, 20 °C, PBS, one-to-one binding model. More on the design: unit not given here. A general note: ITC needs no label: the signal is the heat of the interaction.
For series [6] the target is unchanged. The experiment in a line: ITC, apparent Kd.
The target is the same in series [7]. The experiment in a line: FTS thermal shift assay.
Series [8] has the same target. The experiment in a line: ITC, peptide titrated into eIF4E, 20 °C, PBS, one-to-one binding model; entropy calculated.
The target is the same in series [9]. The experiment in a line: ITC.
Series [10] shares this target. The experiment in a line: Kd estimated from the FTS thermal shift of eIF4E (10 µM eIF4E, 100 µM peptide).
Procedure: A fluorescence based thermal shift assay was used to screen and rank the rationally designed eIF4E binding derivative peptides. The fluorescent dye Sypro Red was used to monitor thermal denaturation of eIF4E. Binding of the dye molecule to eIF4E, as it unfolds due to thermal denaturation, results in a sharp increase in the fluorescence intensity. The midpoint of this transition is termed the Tₘ. The thermal shift assay was conducted in the iCycler Real Time Detection System (Bio-Rad, Hercules, Calif.).
The target is the same in series [11]. The experiment in a line: fluorescence-based thermal shift assay (FTS), Sypro Red, 10 µM eIF4E, 100 µM peptide.
Procedure: The fluorescent dye Sypro Red was used to monitor thermal denaturation of eIF4E. Binding of the dye molecule to eIF4E, as it unfolds due to thermal denaturation, results in a sharp increase in the fluorescence intensity. The midpoint of this transition is termed the Tₘ. The thermal shift assay was conducted in the iCycler Real Time Detection System (Bio-Rad, Hercules, Calif.). The system contains a heating/cooling device for accurate temperature control and a charge-coupled device (CCD) detector for simultaneous imaging of the fluorescence changes in the wells of the microplate. […] The final protein concentration was 10 μM. Protein samples were incubated with derivative peptides at a concentration of a 100 μM. The plate was heated from 20 to 90° C. with a heating rate of 1° C./min.
Series [12] shares this target. The experiment in a line: ITC, peptide titrated into eIF4E, 20° C.
Procedure: (§1) ITC experiments were conducted in a VP-ITC Unit (MicroCal, Northampton, Mass.). […] The buffer used for dialysis of the protein was used to dilute the peptides to their final working concentration. The protein buffer solution was matched to the peptide solution by the addition of DMSO in the case of the non TAT fused peptides. The titration experiments were performed at 20° C. with an initial 2 μl injection with duration of 4 s, fooled by 28 10 μl injections with a duration of 7.1 s. The spacing between each injection was 150 s. The stirring speed during the titration was 290 rpm. Data was analyzed using Microcal Origin software by fitting to a single-site binding model. Correction for the enthalpy of ligand dilution was carried out by subtracting a linear fit from the last three data points of the titration, after the interaction had reached saturation.
The target is the same in series [13]. The experiment in a line: ITC, apparent Kd against the template peptide.
Procedure: as §1
Series [14] has the same target. The experiment in a line: ITC, peptide titrated into eIF4E, 20 °C, PBS, one-to-one binding model; entropy calculated. More on the design: unit not given here.
Series [15] shares this target. The experiment in a line: ITC, peptide titrated into eIF4E, 20 °C, PBS, one-to-one binding model.
Procedure: as §1
Series [16] has the same target. The experiment in a line: fluorescence-based thermal stability assay (FTS).

Square brackets hold non-standard residues; d marks the D form. Ends that are not written are not given here. αMeF = C[C@](N)(Cc1ccccc1)C(=O)O; Ac5c = NC1(C(=O)O)CCCC1; Aib = CC(C)(N)C(=O)O

T1 sequence (P06730 2-217): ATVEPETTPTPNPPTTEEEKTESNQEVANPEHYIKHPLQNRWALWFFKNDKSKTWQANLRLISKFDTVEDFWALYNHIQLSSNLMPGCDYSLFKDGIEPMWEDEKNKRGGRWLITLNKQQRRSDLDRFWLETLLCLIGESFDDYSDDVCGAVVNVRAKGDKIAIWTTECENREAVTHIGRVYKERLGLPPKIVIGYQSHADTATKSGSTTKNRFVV
Sequence of eukaryotic translation initiation factor 4E (eIF4E), full length human (human) (P06730 2-217): as above

Turning to Tr2_AIB3_A5C peptide (YDREFLL5FQF), the Kd in [1] is 1450 nM. Also, the ΔT (°C) in [2] worked out at 6.6 °C.
Regarding KKRYDREFLL-NH2 [Tr1], in series [3], the “ΔT (°C)” value amounted to 1.7 °C. Further, the Kd in [4] is 50200 nM.
Regarding YGRKKRRQRRRGTKKRYDRE[αMeF]LL[Ac5c]FQF [TAT_eIF4G1_me5 peptide (YGRKKRRQRRRGTKKRYDRE*LL5FQF)], in [5], the ΔH is -12.4. Also, the Kd in series [6] turned out to be 10.2 nM. In addition, the “thermal shift in the Tm of eIF4E greater than that of the TAT_eIF4G1 peptide” value in [7] is ~0.82 ° C. Further, in series [8], the ΔS is -5.69 Cal mol-1K-1.
On to YGRKKRRQRRRGTKKRYDREFLLGFQF (also called eIF4G1 TAT fused peptide) [TAT_eIF4G1 peptide], for which the “fold lower Kd than the shorter parent peptide (eIF4G1)” value in series [9] was ~2.7 fold. For the same molecule, the ΔH in [5] was -5.52. The Kd in [6] was 56.2 nM. In [8], the ΔS was 15 Cal mol-1K-1.
In the case of Y[Aib]REFLLGFQF (not fully specified (C-terminus)) [Tr2_AIB1 peptide], the Kd in series [10] is 29800 nM. Moreover, the “ΔT (°C)” value in series [11] is 1.32 °C.

B1: Tr2_me5_3 (peptide)
peptide: YDREFLLXFQX
modifications: position 631 (printed '5') = 1-amino cyclopentanoic acid; position 634 (printed '*') = Cα-Me-L-Phenylalanine; C-terminal amide (-NH2)
In the case of B1, the Kd in [10] is 2400 nM. The “ΔT (°C)” value in [11] stood at 5.8 °C.
The corresponding values for YDREFLLGF[Aib]F (not fully specified (C-terminus)) [Tr2_AIB4 peptide] are 25100 nM and 1.52 °C.

B2: eIF4G1_me5 peptide (KKRYDRE*LL5FQF) (peptide)
peptide: KKRYDRE[αMeF]LL[Ac5c]FQF
modifications: not fully specified (C-terminus)
notes: also called modified 14mer eIF4G1_me5 peptide; helically stabilized peptide
On to B2, for which, in [9], the binding enthalpy is -14.4 kcal/mol and the “ΔΔG against the template peptide (eIF4G1)” value is ~1.6 kcal/mol. This molecule registered a Kd in [12] of 9.43 nM. In addition, the Kd in [10] is 7 nM. For the same molecule, in [13], the “fold more potent than the template peptide (eIF4G1)” value was ~15.7 fold. Besides, in [14], the “-TΔS” value was -3.69. Moreover, in series [7], the “fold increase in thermal shift over the original 14-mer eIF4G1 peptide” value stood at 1.7 fold and the “thermal shift in the melting temperature of eIF4E” value is ~14 ° C. Also, the “ΔT (°C)” value in [11] worked out at 14.6 °C.

B3: Tr2_AIB3_A3C (peptide)
peptide: YDREFLLXFQF
modifications: position 631 (printed '3') = 1-amino cyclopropanoic acid; C-terminal amide (-NH2)
B3: the Kd in [10] is 2500 nM. In [11], the “ΔT (°C)” value was determined as 5.67 °C.
On to YDREFLLGFQF (not fully specified (C-terminus), also called truncated Tr2) [Tr2 peptide (truncated 11mer eIF4G1 peptide)], for which, in series [9], the binding enthalpy was -10.9 kcal/mol. For the same molecule, the Kd in series [12] is 1040 nM; in series [10], 5960 nM; in series [15] it was 1010 nM. Further, the “-TΔS” value in [14] is -2.91. In [11], the “ΔT (°C)” value came to 4.2 °C.
ADREFLLGFQF (not fully specified (C-terminus)) [11mer (control) peptide with the conserved tyrosine mutated to alanine]: in [3], the binding result is “no binding (tested: 200 µM)” and the “ΔT (°C)” value was determined as 0.65 °C.
Regarding YDREFLLAFQF-NH2 (not fully specified) [Tr2_AIB3_ALA], in series [10], the Kd was 2550 nM. Also, the “ΔT (°C)” value in series [11] was found to be 5.6 °C.
Take YDR[Aib]FLLGFQF (not fully specified (C-terminus)) [Tr2_AIB2 peptide]: the binding result in series [11] is reported as “no binding (tested: 100 µM)”.
Consider YGRKKRRQRRR (also called TAT tag) [TAT peptide (YGRKKRRQRRR)], for which the binding result in series [16] was “no binding”.

B4: Tr2_me5-1 peptide (YDRE*LL5FQF) (peptide)
peptide: YDREXLLXFQF
modifications: not fully specified; Cα-methyl-L-phenylalanine at position 628; 1-aminocyclopentanecarboxylic acid (A5C) at position 631
notes: also called truncated modified Tr2_me5-1 peptide
Take B4: the binding enthalpy in series [9] is -16.1 kcal/mol. Besides, the Kd in [12] was 146 nM; in series [10], 360 nM. Besides, in [14], the “-TΔS” value was -6.89. Also, in [11], the “ΔT (°C)” value is 8.8 °C.

B5: Tr2_AIB3_A4C (peptide)
peptide: YDREFLLXFQF
modifications: position 631 (printed '4') = 1-amino cyclobutanoic acid; C-terminal amide (-NH2)
On to B5, for which the Kd in series [10] is 2350 nM. Besides, the “ΔT (°C)” value in series [11] was 5.8 °C.
YDREFLLGFQ-NH2 [Tr3]: in series [3], the “ΔT (°C)” value turned out to be 2.25 °C. Besides, the Kd in [4] is 35200 nM.
With YDREFLLXFQF (not fully specified; G631 replaced with aminoisobutyric acid (Aib)) [Tr2_AIB3 peptide], in [10], the Kd is 3050 nM. Also, in [11], the “ΔT (°C)” value worked out at 5.42 °C.
For YDAEFLL[Ac5c]FQF (not fully specified (C-terminus)) [Tr2_ALA_A5C2 (Tr2_AIB3_A5C with R626 replaced with alanine)], the Kd in series [10] was 14300 nM. Besides, in [11], the “ΔT (°C)” value came out at 2.69 °C.
Consider YAREFLL[Ac5c]FQF (not fully specified (C-terminus)) [Tr2_ALA_A5C1 (Tr2_AIB3_A5C with alanine at position 625)], for which the Kd in [10] is 760 nM. For the same molecule, in series [11], the “ΔT (°C)” value came out at 5.02 °C.
As to YDREFLL[Ac5c]AQF (not fully specified (C-terminus)) [Tr2_ALA_A5C5 (Tr2_AIB3_A5C with F632 replaced with alanine)], in series [10], the Kd was 8400 nM. For the same molecule, in series [11], the “ΔT (°C)” value is 3.65 °C.
In the case of YDREALL[Ac5c]FQF (not fully specified (C-terminus), 29=625, 30=626, 31=627, 34=633)) [Tr2_ALA_A5C4 (Tr2_AIB3_A5C with F628 replaced with alanine)], the Kd in series [10] was 8090 nM. For the same molecule, the “ΔT (°C)” value in series [11] stood at 3.72 °C.
Take YDREFLL[Ac5c]FQA (not fully specified (C-terminus)) [Tr2_ALA_A5C7 (Tr2_AIB3_A5C with F634 replaced with alanine)]: the Kd in series [10] was 2900 nM. For the same molecule, in series [11], the “ΔT (°C)” value worked out at 5.48 °C.
For the molecule YDREFLL[Ac5c]FAF (not fully specified (C-terminus)) [Tr2_ALA_A5C6 (Tr2_AIB3_A5C with alanine at position 633)], the Kd in series [10] was 1370 nM. Also, the “ΔT (°C)” value in [11] was 6.72 °C.
The like results for YDRAFLL[Ac5c]FQF (not fully specified (C-terminus)) [Tr2_ALA_A5C3 (Tr2_AIB3_A5C with alanine at position 627)] were, in that order, 1220 nM and 4.22 °C.
